Data reported in US20210054042A1 (UNIVERZA V LJUBLJANI, published 2021).
No end group written: not given here.

How the values were obtained:
Assay in all cases: phage ELISA
[1] = target: T1, streptavidin (UniProt P22629 37-163, limits assumed)
T1 construct: Negative control target; also called SA
Description: (§1) Wells of a 96-well microplate (Nunc, Maxisorp) were either coated with human Fc fragment solution or streptavidin as negative control. The wells were blocked with BSA and contacted with amplified population of each individual clone. Bound phages were detected by the addition of horseradish peroxidase (HRP)-conjugated anti-M13 monoclonal antibodies using the chromogenic substrate (3,3′,5,5′-tetramethylbenzidine (TMB)) solution, and absorbance at 450 nm was measured.
(§2) The binding activity of phage clone displaying the minimized peptide SEQ ID NO: 2, was further evaluated by phage ELISA (as described above) using different subclasses of native human IgGs and different therapeutic monoclonal antibodies. BSA, avidin and SA were used as targets in negative control wells.

[2] = target: T2, avidin (UniProt P02701 25-152)
T2 construct: Negative control target
Description: as §1, §2

[3] = target: T3, BSA (UniProt P02769 25-607)
T3 construct: Negative control target; also called bovine serum albumin
Description: as §1, §2

Measured: binding result

T1 sequence (P22629 37-163 limits assumed): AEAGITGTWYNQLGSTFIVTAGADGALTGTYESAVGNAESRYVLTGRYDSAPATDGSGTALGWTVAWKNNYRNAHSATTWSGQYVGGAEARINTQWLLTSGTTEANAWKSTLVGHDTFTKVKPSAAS
T2 sequence (P02701 25-152 limits assumed): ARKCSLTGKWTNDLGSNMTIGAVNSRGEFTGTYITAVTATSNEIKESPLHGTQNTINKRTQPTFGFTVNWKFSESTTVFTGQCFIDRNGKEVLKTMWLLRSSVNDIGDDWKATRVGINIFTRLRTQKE
T3 sequence (P02769 25-607 limits assumed): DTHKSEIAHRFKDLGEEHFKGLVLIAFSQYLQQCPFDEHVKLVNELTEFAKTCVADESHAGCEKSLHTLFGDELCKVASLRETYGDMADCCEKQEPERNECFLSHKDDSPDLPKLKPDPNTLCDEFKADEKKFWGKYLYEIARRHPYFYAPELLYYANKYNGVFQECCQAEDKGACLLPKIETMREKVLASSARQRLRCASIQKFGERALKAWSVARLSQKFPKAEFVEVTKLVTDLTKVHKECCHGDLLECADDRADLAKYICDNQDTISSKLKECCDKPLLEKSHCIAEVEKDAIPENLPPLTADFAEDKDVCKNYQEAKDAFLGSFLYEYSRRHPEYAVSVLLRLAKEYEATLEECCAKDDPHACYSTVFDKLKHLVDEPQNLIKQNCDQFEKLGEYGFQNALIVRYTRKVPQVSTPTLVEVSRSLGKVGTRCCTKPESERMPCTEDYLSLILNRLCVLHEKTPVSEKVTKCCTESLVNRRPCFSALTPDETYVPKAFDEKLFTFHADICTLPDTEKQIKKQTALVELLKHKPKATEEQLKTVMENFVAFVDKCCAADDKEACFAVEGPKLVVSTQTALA

B1: phage clone displaying the minimized peptide SEQ ID NO: 2 (peptide, not shown: large carriers)
peptide: GSYWYQVWF
modifications: also: displayed on phage as P3 coat protein fusion, fusion limits and linker not given here
no binding: all assays above
